# Laboratory results from article doi:10.1101/2025.02.08.637281 (bioRxiv, 2025).
# B1: SLEEPY 1 (SLY1), F-box protein (natural protein, Arabidopsis thaliana, UniProt Q9STX3 1-151, looked up)
# chain: MKRSTTDSDLAGDAHNETNKKMKSTEEEEIGFSNLDENLVYEVLKHVDAKTLAMSSCVSKIWHKTAQDERLWELICTRHWTNIGCGQNQLRSVVLALGGFRRLHSLYLWPLSKPNPRARFGKDELKLTLSLLSIRYYEKMSFTKRPLPESK
# B2: GA … DWARF1A (GID1A), gibberellin receptor, GA3-bound (receptor, Arabidopsis thaliana, UniProt Q9MAA7 1-345, looked up)
# chain: MAASDEVNLIESRTVVPLNTWVLISNFKVAYNILRRPDGTFNRHLAEYLDRKVTANANPVDGVFSFDVLIDRRINLLSRVYRPAYADQEQPPSILDLEKPVDGDIVPVILFFHGGSFAHSSANSAIYDTLCRRLVGLCKCVVVSVNYRRAPENPYPCAYDDGWIALNWVNSRSWLKSKKDSKVHIFLAGDSSGGNIAHNVALRAGESGIDVLGNILLNPMFGGNERTESEKSLDGKYFVTVRDRDWYWKAFLPEGEDREHPACNPFSPRGKSLEGVSFPKSLVVVAGLDLIRDWQLAYAEGLKKAGQEVKLMHLEKATVGFYLLPNNNHFHNVMDEISAFVNAEC
# Legend:
# [1] = biological target: T1, ASK2, SKP1-like protein of Arabidopsis thaliana (Arabidopsis thaliana, UniProt Q9FHW7 1-171); test: SEC
# T1 sequence (looked up): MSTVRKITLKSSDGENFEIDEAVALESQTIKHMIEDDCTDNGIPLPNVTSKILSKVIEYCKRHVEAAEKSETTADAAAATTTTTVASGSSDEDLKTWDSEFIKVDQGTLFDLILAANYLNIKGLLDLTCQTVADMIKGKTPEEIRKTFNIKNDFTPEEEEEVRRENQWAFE
# [2] = biological target: T2, REPRESSOR OF GA1-3 (RGA), full-length, Arabidopsis thaliana DELLA protein (Arabidopsis thaliana, UniProt Q9SLH3 1-587); test: SEC-MALS
# T2 sequence (looked up): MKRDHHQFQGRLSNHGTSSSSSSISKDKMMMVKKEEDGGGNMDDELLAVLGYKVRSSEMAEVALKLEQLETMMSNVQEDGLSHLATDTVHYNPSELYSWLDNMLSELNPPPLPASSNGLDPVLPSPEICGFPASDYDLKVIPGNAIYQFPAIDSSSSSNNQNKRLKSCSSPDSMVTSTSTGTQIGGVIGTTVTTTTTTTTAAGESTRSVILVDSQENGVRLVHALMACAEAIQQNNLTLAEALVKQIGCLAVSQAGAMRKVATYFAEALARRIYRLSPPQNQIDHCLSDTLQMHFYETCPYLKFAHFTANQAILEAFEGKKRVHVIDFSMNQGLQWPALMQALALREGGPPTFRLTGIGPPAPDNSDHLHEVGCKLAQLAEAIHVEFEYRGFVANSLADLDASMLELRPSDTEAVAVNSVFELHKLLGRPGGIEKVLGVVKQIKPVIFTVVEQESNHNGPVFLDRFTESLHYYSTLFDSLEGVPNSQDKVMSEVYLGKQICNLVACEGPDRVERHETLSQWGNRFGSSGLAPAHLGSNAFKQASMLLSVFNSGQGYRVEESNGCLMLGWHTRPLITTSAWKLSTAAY
Binder,binding result [1],binding result [2]
B1,binds,–
B2,–,binds
